Results taken from patent publication US20210324080A1 (JIANGSU HUAIYU PHARMACEUTICAL, published 2021).

T1: CTLA-4 on human T lymphocytes (PBMC, CD3+ T cells) (human, UniProt P16410 36-223)
T1 sequence (looked up): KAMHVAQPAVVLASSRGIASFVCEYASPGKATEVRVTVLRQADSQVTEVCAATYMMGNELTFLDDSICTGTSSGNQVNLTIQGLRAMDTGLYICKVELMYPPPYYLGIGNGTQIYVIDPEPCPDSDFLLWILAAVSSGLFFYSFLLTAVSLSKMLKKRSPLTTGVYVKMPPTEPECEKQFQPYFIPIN

T2: human CTLA-4 (Y201V), full length, on transfected cells (human, UniProt P16410 36-223)
T2 construct: whole, on cells; also called hCTLA-4; HEK293-hCTLA-4 (Y201V)
T2 sequence (looked up): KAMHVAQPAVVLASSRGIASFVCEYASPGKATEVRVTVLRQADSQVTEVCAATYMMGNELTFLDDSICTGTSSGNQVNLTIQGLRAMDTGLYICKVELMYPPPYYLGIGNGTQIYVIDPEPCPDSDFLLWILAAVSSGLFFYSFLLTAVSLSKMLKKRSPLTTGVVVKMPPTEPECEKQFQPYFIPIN

T3: CTLA-4-hFc (immunogen A; hFc-labeled CTLA-4 extracellular domain protein) (human, UniProt P16410 36-161)
T3 construct: range 36-161; Made in HEK293 cells, purified on protein A; also called CLTA-4-hFc; CTLA-4 protein; not shown: human IgG Fc fragment (hFc) of the pCpC vector
T3 sequence (looked up): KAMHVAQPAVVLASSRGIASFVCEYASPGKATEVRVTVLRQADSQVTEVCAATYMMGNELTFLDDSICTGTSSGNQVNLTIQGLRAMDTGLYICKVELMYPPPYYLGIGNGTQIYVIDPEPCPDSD


Columns and labels:
[1] = molecular target: T1, CTLA-4 on human T lymphocytes (PBMC, …); test: cell-based or functional assay
[2] = molecular target: T4, monkey CTLA-4, full length, on transfected HEK293 cells (monkey); test: FACS, 293F-cCTLA-4 cells
T4 construct: whole, on cells; also called cCTLA-4; HEK293-cCTLA-4
Description: The pIRES plasmid with the monkey-derived CTLA-4 full-length gene was transfected into the HEK293 cell line to construct a HEK293 stable cell line containing monkey CTLA-4 (herein referred to as HEK293-cCTLA-4 stable cell line), wherein the database accession number of the monkey CTLA-4 nucleotide sequence is XM_005574014.1. The HEK293-hCTLA-4 stable cell line and HEK293-cCTLA-4 stable cell line were expanded in a T-75 cell culture flask to a 90% confluence. The medium was aspirated, and the cells were washed with HBSS buffer (Hanks Balanced Salt Solution, purchased from Invitrogen) twice, then treated with an enzyme-free cell dissociation fluid (Versene solution, purchased from Life technology) and the cells were collected. The cells were washed with HBSS buffer twice. After counted, the cells were diluted with HBSS buffer to 2×10⁶ cells per ml, added with 1% goat serum blocking solution, wherein the percentage was the mass percantage. Cells were incubated on ice for 30 minutes, then washed twice with HBSS buffer by centrifugation. The collected cells were suspended in the FACS buffer (HBSS containing 1% BSA, wherein the percentage was the mass percantage) to 2×10⁶ cells/ml, added as 100 microliters per well to a 96-well FACS reaction plate, added with 100 microliters per well of the purified CTLA-4 antibody sample to be tested, incubated on ice for 2 hours. The plate was washed twice with the FACS buffer by centrifugation, added with 100 microliters of fluorescent (Alexa 488)-labeled secondary antibodies (purchased from Invitrogen) per well, and incubated on ice for 1 hour. The plate was washed 3 times with FACS buffer by centrifugation, added with 100 μl fixative solution [4% (v/v) Paraformaldehyde] per well to suspend the cells. 10 minutes later, it was washed 2 times with FACS buffer by centrifugation. The cells were suspended with 100 microliters of FACS buffer, FACS (FACS Calibur, purchased from BD) was used for detection and the results were analyzed.

[3] = molecular target: T2, human CTLA-4 (Y201V), full length, on …; test: FACS, CHOK1-hCTLA-4 cells
[4] = molecular target: T3, CTLA-4-hFc (immunogen A; hFc-labeled …); test: ELISA, coated CTLA-4-hFc, competitor biotin-B7.1-hFc
Method: (§1) CTLA-4 extracellular domain protein (CTLA-4-hFc) was diluted with PBS to a final concentration of 1.0 μg/mL, and then added to a 96-well ELISA plate as 100 μl per well. The plate was covered with a plastic film and incubated overnight at 4° C. The plate was washed twice with plate washing solution [PBS containing 0.01% (v/v) Tween 20] on the next day, and added with blocking solution [PBS containing 0.01% (v/v) Tween 20 and 1% (w/w) BSA] and blocked at room temperature for 2 hours. […] After 2 hours, the plate was washed 3 times with a plate washing solution [PBS containing 0.01% (v/v) Tween 20]. HRP (horseradish peroxidase) labeled avidin diluent (purchased from Sigma) was added 100 microliters per well, and after the plate was incubated for 2 hours at 37° C., it was washed with plate washing solution [PBS containing 0.01% (v/v) Tween 20] for 3 times. […] TMB substrate was added to each well. After incubated at room temperature for 30 minutes, the plate was added with […] stop solution (1.0N HCl) to each well. An ELISA plate reader (SpectraMax 384plus, Molecular Device) was used to read the A450 nm value.

[5] = molecular target: T3, CTLA-4-hFc (immunogen A; hFc-labeled …); test: ELISA, coated CTLA-4-hFc, competitor biotin-B7.2-hFc
Method: as §1

[6] = molecular target: T3, CTLA-4-hFc (immunogen A; hFc-labeled …); test: competition ELISA: CTLA-4-hFc coated, antibody titrated, blocked ligand biotin-labeled B7.1-hFc, HRP-avidin, A450, inhibition (%)
Method: as §1

[7] = molecular target: T3, CTLA-4-hFc (immunogen A; hFc-labeled …); test: competition ELISA: CTLA-4-hFc coated, antibody titrated, blocked ligand biotin-labeled B7.2-hFc, HRP-avidin, A450, inhibition (%)
Method: as §1

| IL-2 (pg/mL) at 0.016 ug/mL, SEB PBMC test [1] | IL-2 (pg/mL) at 0.08 ug/mL, SEB PBMC test [1] | IL-2 (pg/mL) at 2 ug/mL, SEB PBMC test [1] | IL-2 (pg/mL) at 4 ug/mL (so in the source), SEB PBMC test [1] | IL-2 (pg/mL) at 10 ug/mL, SEB PBMC test [1] | MFI at 0.000128 nM [2] | MFI at 0.0128 nM [2] | MFI at 0.064 nM [2] | MFI at 0.32 nM [2] | MFI at 1.6 nM [2] | MFI at 8 nM [2] | MFI at 40 nM [2] | MFI at 200 nM [2] | MFI at 0.07 nM [3] | MFI at 0.67 nM [3] | MFI at 6.67 nM [3] | MFI at 66.67 nM [3] | Inhibition rate (%) at 0.00091 nM [4] | Inhibition rate (%) at 0.091 nM [4] | Inhibition rate (%) at 0.274 nM [4] | Binder | also measured |
| --- | --- | --- | --- | --- | --- | --- | --- | --- | --- | --- | --- | --- | --- | --- | --- | --- | --- | --- | --- | --- | --- |
| 355 pg/mL | 830 pg/mL | 3740 pg/mL | 1420 pg/mL | 6120 pg/mL | 2.3 | 22.2 | 67.7 | 208 | 465 | 722 | 800 | 711 | 29 | 154 | 420 | 603 | 0% | 8% | 55% | 92C8B6 (chimeric antibody purified from hybridoma supernatant) (antibody, V domains shown, also called mAb42; mAb042) VH: QVQLVESGGGVVQPGRSLRLSCAASGFTFSNFGMHWVRQAPGKGLEWVAVIWYDGSNKYYADSVKGRFTISRDNSKNTLFLQMNGLRAEDTAVYYCAKGGILMAGTLDYWGQGTLVTVSS VL: DIQMTQSPSSLSASVGDRVTITCRASQSVSTYLNWYQQKPGKAPKLLIYAASSFQSGVPSRFSGSGSGTDFTLTISSLQPEDFATYFCQQSYSTPFTFGPGTKVDIK | Inhibition rate (%) at 0.823 nM [4]: 93%; Inhibition rate (%) at 2.5 nM [4]: 94%; Inhibition rate (%) at 7.4 nM [4]: 97%; Inhibition rate (%) at 22.2 nM [4]: 96%; Inhibition rate (%) at 66.7 nM [4]: 97%; Inhibition rate (%) at 0.00091 nM [5]: 0%; Inhibition rate (%) at 0.091 nM [5]: 23%; Inhibition rate (%) at 0.274 nM [5]: 60%; Inhibition rate (%) at 0.823 nM [5]: 90%; Inhibition rate (%) at 2.5 nM [5]: 92%; Inhibition rate (%) at 7.4 nM [5]: 95%; Inhibition rate (%) at 22.2 nM [5]: 94%; Inhibition rate (%) at 66.7 nM [5]: 95%; IC50 (read off the curve) [6]: ~0.2 nM; IC50 (read off the curve) [7]: ~0.2 nM |
| 446 pg/mL | 824 pg/mL | 4450 pg/mL | 1950 pg/mL | 7910 pg/mL | 2.3 | 35.7 | 96.8 | 270 | 504 | 757 | 810 | 784 | 22 | 125 | 347 | 606 | 0% | -2% | 4% | 97B8E1 (chimeric antibody purified from hybridoma supernatant) (antibody, V domains shown, also called mAb50; mAb050) VH: QVQLVESGGGVVQPGRSLRLSCAASGFTFSSYVMHWVRQAPGKGLEWVAVIWSDGRNKYYTDSVKGRFTISRDNSKNTLYLQMSSLRAEDTAVYYCARSGIALAGNAFDIWGQGTMVTVSS VL: not shown | Inhibition rate (%) at 0.823 nM [4]: 75%; Inhibition rate (%) at 2.5 nM [4]: 87%; Inhibition rate (%) at 7.4 nM [4]: 89%; Inhibition rate (%) at 22.2 nM [4]: 89%; Inhibition rate (%) at 66.7 nM [4]: 96%; Inhibition rate (%) at 0.00091 nM [5]: 0%; Inhibition rate (%) at 0.091 nM [5]: -29%; Inhibition rate (%) at 0.274 nM [5]: 2%; Inhibition rate (%) at 0.823 nM [5]: 62%; Inhibition rate (%) at 2.5 nM [5]: 78%; Inhibition rate (%) at 7.4 nM [5]: 89%; Inhibition rate (%) at 22.2 nM [5]: 91%; Inhibition rate (%) at 66.7 nM [5]: 93%; IC50 (read off the curve) [6]: ~0.5 nM; IC50 (read off the curve) [7]: ~0.6 nM |
| 336 pg/mL | 742 pg/mL | 4950 pg/mL | 1520 pg/mL | 7980 pg/mL | 2.4 | 23.1 | 67.2 | 225 | 513 | 754 | 910 | 831 | 20 | 116 | 395 | 617 | 0% | -1% | 4% | 97A8D1 (chimeric antibody purified from hybridoma supernatant) (antibody, V domains shown, also called mAb49; mAb049) VH: QVQLVESGGGVVQPGRSLRLSCVASGFTFNNYGMNWVRQAPGKGLEWVAVIWYGGRNKFYADSVKGRFTISRDNSKNTLYLEMNSLRAEDTAVYYCARADWGGWFDPWGQGTLVTVSS VL: EIVLTQSPGTLSLSPGERATLSCRASQSVSSTYLAWYQQKPGQAPRLLIHGAFSRATGIPDRFSGSGSGPDFTLTISRLEPEDFAVYYCQQYGTSPFTFGPGTKVDIK | Inhibition rate (%) at 0.823 nM [4]: 78%; Inhibition rate (%) at 2.5 nM [4]: 93%; Inhibition rate (%) at 7.4 nM [4]: 91%; Inhibition rate (%) at 22.2 nM [4]: 91%; Inhibition rate (%) at 66.7 nM [4]: 97%; Inhibition rate (%) at 0.00091 nM [5]: 0%; Inhibition rate (%) at 0.091 nM [5]: -21%; Inhibition rate (%) at 0.274 nM [5]: 6%; Inhibition rate (%) at 0.823 nM [5]: 76%; Inhibition rate (%) at 2.5 nM [5]: 91%; Inhibition rate (%) at 7.4 nM [5]: 95%; Inhibition rate (%) at 22.2 nM [5]: 94%; Inhibition rate (%) at 66.7 nM [5]: 95%; IC50 (read off the curve) [6]: ~0.5 nM; IC50 (read off the curve) [7]: ~0.5 nM |
